# Experimental data taken from patent publication US20210002330A1 (ASOCIACI N CENTRO DE INVESTIGACI N COOPERATIVA EN …, published 2021).
# Legend:
# [1] = molecular target: T1, fluorescein-labeled Hsp90 peptide (fluorescein label (position not given)); experiment: fluorescence anisotropy; protein titrated into 50 nM fluorescein-labeled Hsp90 peptide
# T1 construct: also called target peptide; C-terminal peptide of Hsp90
# T1 peptide: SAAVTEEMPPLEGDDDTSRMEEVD
# Protocol: (§1) In addition, the ligand binding activity of the tested proteins was studied by using CC1-CTPR390, CC1-TPR2A, CC1-TPR2A_T332R_D334K proteins and its target peptide. […] Fluorescence intensities were recorded in a Perkin Elmer Fluorimeter equipped with excitation and emission polarizers. Excitation was accomplished with a 5 nm slit width at 492 nm and the emission recorded at 516 nm with slit width of 5 nm. […]
# [2] = molecular target: T1, fluorescein-labeled Hsp90 peptide; experiment: fluorescence anisotropy with fluorescein-labeled Hsp90 peptide; protein-stabilised gold nanocluster complex
# Protocol: as §1
# Finally, fluorescence anisotropy was used to monitor the interaction between the CC1-CTPR390-AuNCs, CC1-TPR2A-AuNCs and CC1-TPR2A_T332R_D334K-AuNCs complexes and a fluorescein-labeled Hsp90 peptide to determine the corresponding Kd value.
Binder,Kd [1] [µM],Kd [2] [µM]
"CC1-CTPR390 (designed binder, CC1 Cys-clamp module (modules C and C1 fused) joined to the Hsp90 recognition domain CTPR390; Expressed in E. coli and the His tag was cleaved with TEV) AEAWCNLGCAYYKQGDYDEAIEYYQKALELDPRSACAWYCLGNAYYKQGDYDEAIEYYQKALELDPRSAEAWKNLGNAYYKQGDYQKAIEYYQKALELDPNNASAWYNLGNAYYKQGDYQKAIEYYQKALELDPNNAKAWYRRGNAYYKQGDYQKAIEDYQKALELDPNNAKAKQNLGNAKQKQG",110,–
"CC1-CTPR390-AuNCs (designed binder, gold nanocluster (AuNC) stabilised on the protein (CC1 4-Cys clamp), also called CC1-CTPR390-AuNCs complex) AEAWCNLGCAYYKQGDYDEAIEYYQKALELDPRSACAWYCLGNAYYKQGDYDEAIEYYQKALELDPRSAEAWKNLGNAYYKQGDYQKAIEYYQKALELDPNNASAWYNLGNAYYKQGDYQKAIEYYQKALELDPNNAKAWYRRGNAYYKQGDYQKAIEDYQKALELDPNNAKAKQNLGNAKQKQG",–,~110
